Article PMC3539201

Target: MBP-torsinAΔE (human) (UniProt O14656)
Experiment: pull-down

- fold nesprin-3α pulled down relative to MBP-torsinA: 3 fold
B1: nesprin-3α (endogenous, mouse fibroblasts) (natural protein)
chain: MTQQPQEDFERSVEDAQAWMKVIQEQLQVNDNTKGPRAALEARLRETEKICQLESEGMVKVELVLRAAEALLATCQEGQKPEILARLRDIKSQWEETVTYMTHCHSRIEWVWLHWSEYLLAQDEFYRWFQKMVVALEPPVELQLGLKEKQWQLSHAQVLLHNVDNQAVLLDRLLEEAGSLFSRIGDPSVDEDAQKRMKAEYDAVKARAQRRVDLLAQVAQDHEQYREDVNEFQLWLKAVVEKVHSCLGRNCKLATELRLSTLQDIAKDFPRGEESLKRLEEQAVGVIQNTSPLGAEKISGELEEMRGVLEKLRVLWKEEEGRLRGLLQSRGDCEQQIQQLEAELGDFKKSLQRLAQEGLEPTVKTATEDELVAQWRLFSGTRAALASEEPRVDRLQTQLKKLVTFPDLQSLSDSVVATIQEYQSMKGKNTRLHNATRAELWQRFQRPLNDLQLWKALAQRLLDITASLPDLASIHTFLPQIEAALTESSRLKEQLAMLQLKTDLLGSIFGQERAATLLEQVTSSVRDRDLLHNSLLQRKSKLQSLLVQHKDFGVAFDPLNRKLLDLQARIQAEKGLPRDLPGKQVQLLRLQGLQEEGLDLGTQIEAVRPLAHGNSKHQQKVDQISCDQQALQRSLEDLVDRCQQNVREHCTFSHRLSELQLWITMATQTLESHQGDVRLWDAESQEAGLETLLSEIPEKEVQVSLLQALGQLVMKKSSPEGATMVQEELRKLMESWQALRLLEENMLSLMRNQQLQRTEVDTGKKQVFTNNIPKAGFLINPQDPIPRRQHGANPLEGHDLPEDHPQLLRDFEQWLQAENSKLRRIITMRVATAKDLRTREVKLQELEARIPEGQHLFENLLRLRPARDPSNELEDLRYRWMLYKSKLKDSGHLLTESSPGELTAFQKSRRQKRWSPCSLLQKACRVALPLQLLLLLFLLLLFLLPAGEEERSCALANNFARSFALMLRYNGPPPT
